Laboratory results published in publication PMC2872118 (Nature, 2009).

Target: the molecule itself
Assay: native gel or EMSA

B1: PksA SAT-KS-MAT tridomain (domain or fragment)
chain: MAQSRQLFLFGDQTADFVPKLRSLLSVQDSPILAAFLDQSHYVVRAQMLQSMNTVDHKLARTADLRQMVQKYVDGKLTPAFRTALVCLCQLGCFIREYEESGNMYPQPSDSYVLGFCMGSLAAVAVSCSRSLSELLPIAVQTVLIAFRLGLCALEMRDRVDGCSDDRGDPWSTIVWGLDPQQARDQIEVFCRTTNVPQTRRPWISCISKNAITLSGSPSTLRAFCAMPQMAQHRTAPIPICLPAHNGALFTQADITTILDTTPTTPWEQLPGQIPYISHVTGNVVQTSNYRDLIEVALSETLLEQVRLDLVETGLPRLLQSRQVKSVTIVPFLTRMNETMSNILPDSFISTETRTDTGRAIPASGRPGAGKCKLAIVSMSGRFPESPTTESFWDLLYKGLDVCKEVPRRRWDINTHVDPSGKARNKGATKWGCWLDFSGDFDPRFFGISPKEAPQMDPAQRMALMSTYEAMERAGLVPDTTPSTQRDRIGVFHGVTSNDWMETNTAQNIDTYFITGGNRGFIPGRINFCFEFAGPSYTNDTACSSSLAAIHLACNSLWRGDCDTAVAGGTNMIYTPDGHTGLDKGFFLSRTGNCKPYDDKADGYCRAEGVGTVFIKRLEDALADNDPILGVILDAKTNHSAMSESMTRPHVGAQIDNMTAALNTTGLHPNDFSYIEMHGTGTQVGDAVEMESVLSVFAPSETARKADQPLFVGSAKANVGHGEGVSGVTSLIKVLMMMQHDTIPPHCGIKPGSKINRNFPDLGARNVHIAFEPKPWPRTHTPRRVLINNFSAAGGNTALIVEDAPERHWPTEKDPRSSHIVALSAHVGASMKTNLERLHQYLLKNPHTDLAQLSYTTTARRWHYLHRVSVTGASVEEVTRKLEMAIQNGDGVSRPKSKPKILFAFTGQGSQYATMGKQVYDAYPSFREDLEKFDRLAQSHGFPSFLHVCTSPKGDVEEMAPVVVQLAITCLQMALTNLMTSFGIRPDVTVGHSLGEFAALYAAGVLSASDVVYLVGQRAELLQERCQRGTHAMLAVKATPEALSQWIQDHDCEVACINGPEDTVLSGTTKNVAEVQRAMTDNGIKCTLLKLPFAFHSAQVQPILDDFEALAQGATFAKPQLLILSPLLRTEIHEQGVVTPSYVAQHCRHTVDMAQALRSAREKGLIDDKTLVIELGPKPLISGMVKMTLGDKISTLPTLAPNKAIWPSLQKILTSVYTGGWDINWKKYHAPFASSQKVVDLPSYGWDLKDYYIPYQGDWCLHRHQQDCKCAAPGHEIKTADYQVPPESTPHRPSKLDPSKEAFP
stoichiometry N: 2
